One may read the Kd as the constant that tells how readily two partners part at equilibrium.

The target of experiment [1] is T1, S. pombe αWD40 domain (N-terminal WD40 domain of α-COPI), wild type (S. pombe, UniProt Q96WV5 1-327).
T1 sequence: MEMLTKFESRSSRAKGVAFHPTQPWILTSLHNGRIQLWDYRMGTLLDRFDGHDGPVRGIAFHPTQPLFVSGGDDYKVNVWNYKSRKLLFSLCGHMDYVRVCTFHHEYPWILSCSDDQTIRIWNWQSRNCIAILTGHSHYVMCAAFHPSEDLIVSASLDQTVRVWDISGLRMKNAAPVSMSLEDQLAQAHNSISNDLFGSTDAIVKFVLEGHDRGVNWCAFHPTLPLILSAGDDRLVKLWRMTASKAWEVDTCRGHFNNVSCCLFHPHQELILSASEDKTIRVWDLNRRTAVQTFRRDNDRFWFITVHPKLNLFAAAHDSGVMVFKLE
Kind of experiment: BLI.

For experiment [2], the target named is T2, S. cerevisiae β’WD40 domain (N-terminal WD40 domain of β’-COPI), wild type (S. cerevisiae, UniProt P41811 1-300).
T2 sequence: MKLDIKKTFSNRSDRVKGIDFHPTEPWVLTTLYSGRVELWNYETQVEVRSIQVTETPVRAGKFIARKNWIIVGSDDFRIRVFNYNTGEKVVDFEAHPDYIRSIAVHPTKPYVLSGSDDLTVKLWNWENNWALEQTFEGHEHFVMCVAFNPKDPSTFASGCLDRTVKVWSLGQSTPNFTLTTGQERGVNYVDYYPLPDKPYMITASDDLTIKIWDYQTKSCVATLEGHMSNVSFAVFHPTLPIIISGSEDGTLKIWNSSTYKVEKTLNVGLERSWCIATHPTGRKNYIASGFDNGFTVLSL
Kind of experiment: BLI.

Experiment [3] concerns the target T3, S. pombe αWD40 Tyr139Ala mutant (S. pombe, UniProt Q96WV5 1-327, Tyr139Ala).
T3 sequence: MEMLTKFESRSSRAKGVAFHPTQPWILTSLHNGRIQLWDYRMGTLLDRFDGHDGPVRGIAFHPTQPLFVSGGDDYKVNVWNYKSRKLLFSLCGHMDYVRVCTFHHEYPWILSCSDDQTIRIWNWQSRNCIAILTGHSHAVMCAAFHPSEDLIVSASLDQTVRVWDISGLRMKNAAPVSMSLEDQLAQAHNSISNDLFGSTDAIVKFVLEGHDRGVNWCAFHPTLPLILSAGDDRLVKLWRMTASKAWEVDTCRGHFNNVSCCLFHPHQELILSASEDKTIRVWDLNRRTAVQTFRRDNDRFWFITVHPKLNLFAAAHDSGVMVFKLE
Kind of experiment: BLI. On the technique in general: Biolayer interferometry detects binding as a change in optical thickness at a sensor tip.

Experiment [4] has as its target T4, S. pombe αWD40 Arg300Ala mutant (S. pombe, UniProt Q96WV5 1-327, Arg300Ala).
T4 sequence: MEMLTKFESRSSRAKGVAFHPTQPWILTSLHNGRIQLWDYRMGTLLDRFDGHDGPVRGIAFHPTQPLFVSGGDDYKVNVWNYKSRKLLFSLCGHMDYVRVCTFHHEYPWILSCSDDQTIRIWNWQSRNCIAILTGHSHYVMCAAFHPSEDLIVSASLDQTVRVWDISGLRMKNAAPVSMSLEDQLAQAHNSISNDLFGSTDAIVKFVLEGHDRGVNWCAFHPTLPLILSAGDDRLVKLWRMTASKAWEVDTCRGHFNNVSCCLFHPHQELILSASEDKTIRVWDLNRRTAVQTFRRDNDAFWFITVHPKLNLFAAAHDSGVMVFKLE
Kind of experiment: BLI.

For experiment [5], the target named is T5, S. pombe αWD40 Arg13Ala mutant (S. pombe, UniProt Q96WV5 1-327, Arg13Ala).
T5 sequence: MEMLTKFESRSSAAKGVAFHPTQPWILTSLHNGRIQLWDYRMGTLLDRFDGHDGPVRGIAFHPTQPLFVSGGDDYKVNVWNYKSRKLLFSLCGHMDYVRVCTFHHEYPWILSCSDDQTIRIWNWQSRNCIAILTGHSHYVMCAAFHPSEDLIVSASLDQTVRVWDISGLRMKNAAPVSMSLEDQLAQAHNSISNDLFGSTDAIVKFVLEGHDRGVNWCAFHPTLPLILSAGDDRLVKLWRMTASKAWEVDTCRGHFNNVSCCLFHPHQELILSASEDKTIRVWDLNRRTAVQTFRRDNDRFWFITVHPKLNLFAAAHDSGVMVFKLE
Kind of experiment: BLI.

For experiment [6], the target named is T2, S. cerevisiae β’WD40 domain (N-terminal …). Kind of experiment: NMR titration.

No end group written: not given here.

For GVKLHYE-NH2 (also: biotinylated), the binding result in experiment [1] is reported as “binds”. For the molecule GVKLHYE (also: biotinylated) [clientized (Thr1273Glu) SARS-CoV-2 S tail heptapeptide (residues 1267-1273), biotinylated], the Kd in experiment [2] is 2.3 ± 0.23 µM; in experiment [3], 3.8 ± 0.36 µM; in experiment [4], 4.2 ± 0.4 µM. In the case of GVKLHYT (also: biotinylated) [wild-type SARS-CoV-2 S tail heptapeptide (residues 1267-1273), biotinylated], in experiment [5], the binding result is reported as “binds”. Also, the dissociation constant (Kd) in experiment [4] was 3.6 ± 0.4 µM. For CCKFDEDDSEPVLKGVKLHYE (cysteine pairing not given here; also: 15N isotope label) [15N-labeled clientized (Thr1273Glu) SARS-CoV-2 S C-terminal tail peptide (NMR)], the binding result in experiment [6] is “binds”.

The values are drawn from doi:10.1101/2023.03.09.531992 (bioRxiv, 2023).
